US20250145711A1 (Janssen / Centocor, published 2025)

Assays:
[1] = molecular target: T1, TRCW5 antigen (CD3δε-Fc-Avi) (biotinylated (site not stated)); experiment: ELISA
T1 construct: also called recombinant CD3

[2] = molecular target: T1, TRCW5 antigen (CD3δε-Fc-Avi); experiment: binding after heat
[3] = molecular target: T1, TRCW5 antigen (CD3δε-Fc-Avi); experiment: ELISA after heat
[4] = molecular target: T2, CD3 on primary human pan T cells (human, UniProt P07766 23-207); experiment: flow cytometry, pan T-cells
T2 construct: on cells it stands in the TCR/CD3 complex; also called Pan T-cells (CD3-positive); endogenous CD3
T2 sequence (P07766 23-207 limits assumed): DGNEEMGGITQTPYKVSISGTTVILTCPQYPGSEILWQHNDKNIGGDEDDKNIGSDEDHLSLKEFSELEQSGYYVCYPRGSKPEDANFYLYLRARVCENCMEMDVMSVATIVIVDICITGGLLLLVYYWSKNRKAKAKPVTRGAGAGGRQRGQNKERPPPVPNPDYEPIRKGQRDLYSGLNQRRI

T1 sequence (chain, as listed by the source mutant limits assumed): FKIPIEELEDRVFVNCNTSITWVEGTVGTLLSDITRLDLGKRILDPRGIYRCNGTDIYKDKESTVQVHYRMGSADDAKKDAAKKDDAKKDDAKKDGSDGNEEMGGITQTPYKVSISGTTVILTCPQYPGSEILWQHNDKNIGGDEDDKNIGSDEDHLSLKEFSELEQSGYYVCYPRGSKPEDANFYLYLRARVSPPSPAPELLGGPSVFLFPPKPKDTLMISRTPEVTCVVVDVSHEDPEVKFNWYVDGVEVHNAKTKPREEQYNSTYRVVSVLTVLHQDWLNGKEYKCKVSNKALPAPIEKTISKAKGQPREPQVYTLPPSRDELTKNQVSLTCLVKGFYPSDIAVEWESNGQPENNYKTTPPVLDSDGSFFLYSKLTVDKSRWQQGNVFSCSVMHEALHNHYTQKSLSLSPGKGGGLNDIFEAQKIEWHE

Row | EC50 [1] [nM] | % Retained 55° C. [2] [%] | % Retained 60° C. [2] [%] | % Retained 65° C. [2] [%] | Binder | other results
1 | 12.8 | 111 | 103 | 55.6 | CD3B2030 N106A (scFv) scFv: QVQLVQSGAEVKKPGSSVKVSCKASGYTFTRSTMHWVKQAPGQGLEWIGYINPSSAYTNYNQKFQGRVTLTADKSTSTAYMELSSLRSEDTAVYYCASPQVHYDYAGFPYWGQGTLVTVSSGGSEGKSSGSGSESKSTGGSEIVLTQSPATLSASPGERVTLSCSASSSVSYMNWYQQKPGQAPRRWIYDSSKLASGVPARFSGSGSGRDYTLTISSLEPEDFAVYYCQQWSRNPPTFGGGTKVEIK | –
2 | – | – | – | – | CD3B2085 (scFv) scFv: QVQLVQSGAEVKKPGSSVKVSCKASGYTFTRSTMHWVRQAPGQGLEWMGYINPSSAYTNYAQKFQGRVTLTADKSTSTAYMELSSLRSEDTAVYYCASPQVHYDYNGFPYWGQGTLVTVSSGGSEGKSSGSGSESKSTGGSEIVLTQSPATLSASPGERVTLSCSASSSVSYMNWYQQKPGTAPRRWIYDSSKLASGVPARFSGSGSGRDYTLTISSLEPEDFAVYYCQQWSRNPPTFGGGTKVEIK | % Retained 55° C. [3]: 112%; % Retained 60° C. [3]: 117%; % Retained 65° C. [3]: 18%; % Binding retained on T-cells, 55° C. [4]: 1.01 fraction; % Binding retained on T-cells, 60° C. [4]: 0.411 fraction; % Binding retained on T-cells, 65° C. [4]: 0.385 fraction; % Binding retained on T-cells, RT [4]: 1 fraction
3 | 9.7 | 106 | 83.3 | 21.8 | CD3B2030 N106F (scFv) scFv: QVQLVQSGAEVKKPGSSVKVSCKASGYTFTRSTMHWVKQAPGQGLEWIGYINPSSAYTNYNQKFQGRVTLTADKSTSTAYMELSSLRSEDTAVYYCASPQVHYDYFGFPYWGQGTLVTVSSGGSEGKSSGSGSESKSTGGSEIVLTQSPATLSASPGERVTLSCSASSSVSYMNWYQQKPGQAPRRWIYDSSKLASGVPARFSGSGSGRDYTLTISSLEPEDFAVYYCQQWSRNPPTFGGGTKVEIK | –
4 | ~13.3 | – | – | – | CD3B2030 N106I (scFv) scFv: QVQLVQSGAEVKKPGSSVKVSCKASGYTFTRSTMHWVKQAPGQGLEWIGYINPSSAYTNYNQKFQGRVTLTADKSTSTAYMELSSLRSEDTAVYYCASPQVHYDYIGFPYWGQGTLVTVSSGGSEGKSSGSGSESKSTGGSEIVLTQSPATLSASPGERVTLSCSASSSVSYMNWYQQKPGQAPRRWIYDSSKLASGVPARFSGSGSGRDYTLTISSLEPEDFAVYYCQQWSRNPPTFGGGTKVEIK | –
5 | – | – | – | – | CD3B2088 (scFv) scFv: QVQLVQSGAEVKKPGSSVKVSCKASGYTFTRSTMHWVRQAPGQGLEWMGYINPSSAYTNYAQKFQGRVTLTADKSTSTAYMELSSLRSEDTAVYYCASPQVHYDYNGFPYWGQGTLVTVSSGGSEGKSSGSGSESKSTGGSEIVLTQSPATLSASPGERVTLSCSASSSVSYMNWYQQKPGQSPRRWIYDSSKLASGVPARFSGSGSGRDYTLTISSLEPEDFAVYYCQQWSRNPPTFGGGTKVEIK | % Retained 55° C. [3]: 116%; % Retained 60° C. [3]: 114%; % Retained 65° C. [3]: 26%; % Binding retained on T-cells, 55° C. [4]: 1.01 fraction; % Binding retained on T-cells, 60° C. [4]: 0.461 fraction; % Binding retained on T-cells, 65° C. [4]: 0.258 fraction; % Binding retained on T-cells, RT [4]: 1 fraction
6 | ~429 | – | – | – | CD3B2089 N106G (scFv) scFv: QVQLVQSGAEVKKPGSSVKVSCKASGYTFTRSTMHWVRQAPGQGLEWMGYINPSSAYTNYAQKFQGRVTLTADKSTSTAYMELSSLRSEDTAVYYCASPQVHYDYGGFPYWGQGTLVTVSSGGSEGKSSGSGSESKSTGGSEIVLTQSPATLSASPGERVTLSCSASSSVSYMNWYQQKPGQAPRRWIYDSSKLASGVPARFSGSGSGRDYTLTISSLEPEDFAVYYCQQWSRNPPTFGGGTKVEIK | –
7 | ~24 | – | – | – | CD3B2030 N106P (scFv) scFv: QVQLVQSGAEVKKPGSSVKVSCKASGYTFTRSTMHWVKQAPGQGLEWIGYINPSSAYTNYNQKFQGRVTLTADKSTSTAYMELSSLRSEDTAVYYCASPQVHYDYPGFPYWGQGTLVTVSSGGSEGKSSGSGSESKSTGGSEIVLTQSPATLSASPGERVTLSCSASSSVSYMNWYQQKPGQAPRRWIYDSSKLASGVPARFSGSGSGRDYTLTISSLEPEDFAVYYCQQWSRNPPTFGGGTKVEIK | –
8 | 14.4 | – | – | – | CD3B2089 G107F (scFv) scFv: QVQLVQSGAEVKKPGSSVKVSCKASGYTFTRSTMHWVRQAPGQGLEWMGYINPSSAYTNYAQKFQGRVTLTADKSTSTAYMELSSLRSEDTAVYYCASPQVHYDYNFFPYWGQGTLVTVSSGGSEGKSSGSGSESKSTGGSEIVLTQSPATLSASPGERVTLSCSASSSVSYMNWYQQKPGQAPRRWIYDSSKLASGVPARFSGSGSGRDYTLTISSLEPEDFAVYYCQQWSRNPPTFGGGTKVEIK | –
9 | 30.8 | – | – | – | CD3B2089 N106L (scFv) scFv: QVQLVQSGAEVKKPGSSVKVSCKASGYTFTRSTMHWVRQAPGQGLEWMGYINPSSAYTNYAQKFQGRVTLTADKSTSTAYMELSSLRSEDTAVYYCASPQVHYDYLGFPYWGQGTLVTVSSGGSEGKSSGSGSESKSTGGSEIVLTQSPATLSASPGERVTLSCSASSSVSYMNWYQQKPGQAPRRWIYDSSKLASGVPARFSGSGSGRDYTLTISSLEPEDFAVYYCQQWSRNPPTFGGGTKVEIK | –
10 | 17.4 | – | – | – | CD3B2089 G107V (scFv) scFv: QVQLVQSGAEVKKPGSSVKVSCKASGYTFTRSTMHWVRQAPGQGLEWMGYINPSSAYTNYAQKFQGRVTLTADKSTSTAYMELSSLRSEDTAVYYCASPQVHYDYNVFPYWGQGTLVTVSSGGSEGKSSGSGSESKSTGGSEIVLTQSPATLSASPGERVTLSCSASSSVSYMNWYQQKPGQAPRRWIYDSSKLASGVPARFSGSGSGRDYTLTISSLEPEDFAVYYCQQWSRNPPTFGGGTKVEIK | –
11 | 14.3 | 115 | 59.8 | 1.7 | CD3B2030 N106G (scFv) scFv: QVQLVQSGAEVKKPGSSVKVSCKASGYTFTRSTMHWVKQAPGQGLEWIGYINPSSAYTNYNQKFQGRVTLTADKSTSTAYMELSSLRSEDTAVYYCASPQVHYDYGGFPYWGQGTLVTVSSGGSEGKSSGSGSESKSTGGSEIVLTQSPATLSASPGERVTLSCSASSSVSYMNWYQQKPGQAPRRWIYDSSKLASGVPARFSGSGSGRDYTLTISSLEPEDFAVYYCQQWSRNPPTFGGGTKVEIK | –
12 | – | – | – | – | CD3B2087 (scFv) scFv: QVQLVQSGAEVKKPGSSVKVSCKASGYTFTRSTMHWVRQAPGQGLEWMGYINPSSAYTNYAQKFQGRVTLTADKSTSTAYMELSSLRSEDTAVYYCASPQVHYDYNGFPYWGQGTLVTVSSGGSEGKSSGSGSESKSTGGSEIVLTQSPATLSASPGERVTLSCSASSSVSYMNWYQQKPGTAPRRLIYDSSKLASGVPARFSGSGSGRDYTLTISSLEPEDFAVYYCQQWSRNPPTFGGGTKVEIK | % Retained 55° C. [3]: 104%; % Retained 60° C. [3]: 94%; % Retained 65° C. [3]: 5%; % Binding retained on T-cells, 55° C. [4]: 1.02 fraction; % Binding retained on T-cells, 60° C. [4]: 0.964 fraction; % Binding retained on T-cells, 65° C. [4]: 0.105 fraction; % Binding retained on T-cells, RT [4]: 1 fraction
13 | 11.7 | 99.7 | 87.2 | 7.3 | CD3B2030 N106K (scFv) scFv: QVQLVQSGAEVKKPGSSVKVSCKASGYTFTRSTMHWVKQAPGQGLEWIGYINPSSAYTNYNQKFQGRVTLTADKSTSTAYMELSSLRSEDTAVYYCASPQVHYDYKGFPYWGQGTLVTVSSGGSEGKSSGSGSESKSTGGSEIVLTQSPATLSASPGERVTLSCSASSSVSYMNWYQQKPGQAPRRWIYDSSKLASGVPARFSGSGSGRDYTLTISSLEPEDFAVYYCQQWSRNPPTFGGGTKVEIK | –
14 | ~27.4 | – | – | – | CD3B2089 N106P (scFv) scFv: QVQLVQSGAEVKKPGSSVKVSCKASGYTFTRSTMHWVRQAPGQGLEWMGYINPSSAYTNYAQKFQGRVTLTADKSTSTAYMELSSLRSEDTAVYYCASPQVHYDYPGFPYWGQGTLVTVSSGGSEGKSSGSGSESKSTGGSEIVLTQSPATLSASPGERVTLSCSASSSVSYMNWYQQKPGQAPRRWIYDSSKLASGVPARFSGSGSGRDYTLTISSLEPEDFAVYYCQQWSRNPPTFGGGTKVEIK | –
15 | 10.6 | 104 | 98.9 | 55.7 | CD3B2030 N106H (scFv) scFv: QVQLVQSGAEVKKPGSSVKVSCKASGYTFTRSTMHWVKQAPGQGLEWIGYINPSSAYTNYNQKFQGRVTLTADKSTSTAYMELSSLRSEDTAVYYCASPQVHYDYHGFPYWGQGTLVTVSSGGSEGKSSGSGSESKSTGGSEIVLTQSPATLSASPGERVTLSCSASSSVSYMNWYQQKPGQAPRRWIYDSSKLASGVPARFSGSGSGRDYTLTISSLEPEDFAVYYCQQWSRNPPTFGGGTKVEIK | –
16 | 21.4 | – | – | – | CD3B2089 G107Y (scFv) scFv: QVQLVQSGAEVKKPGSSVKVSCKASGYTFTRSTMHWVRQAPGQGLEWMGYINPSSAYTNYAQKFQGRVTLTADKSTSTAYMELSSLRSEDTAVYYCASPQVHYDYNYFPYWGQGTLVTVSSGGSEGKSSGSGSESKSTGGSEIVLTQSPATLSASPGERVTLSCSASSSVSYMNWYQQKPGQAPRRWIYDSSKLASGVPARFSGSGSGRDYTLTISSLEPEDFAVYYCQQWSRNPPTFGGGTKVEIK | –
17 | 11.4 | 107 | 100 | 25.6 | CD3B2030 N106L (scFv) scFv: QVQLVQSGAEVKKPGSSVKVSCKASGYTFTRSTMHWVKQAPGQGLEWIGYINPSSAYTNYNQKFQGRVTLTADKSTSTAYMELSSLRSEDTAVYYCASPQVHYDYLGFPYWGQGTLVTVSSGGSEGKSSGSGSESKSTGGSEIVLTQSPATLSASPGERVTLSCSASSSVSYMNWYQQKPGQAPRRWIYDSSKLASGVPARFSGSGSGRDYTLTISSLEPEDFAVYYCQQWSRNPPTFGGGTKVEIK | –
